{"source": "the PETadex activity labels (doi:10.1016/j.enzmictec.2020.109715)", "proteins": {"B1": {"name": "unnamed (protein)", "chain": "MNFPRASRLMQAAVLGGLMAVSAAATAQTNPYARGPNPTAASLEASAGPFTVRSFTVSRPSGYGAGTVYYPTNAGGTVGAIAIVPGYTARQSSIKWWGPRLASHGFVVITIDTNSTLDQPSSRSSQQMAALRQVASLNGTSSSPIYGKVDTARMGVMGWSMGGGGSLISAANNPSLKAAAPQAPWDSSTNFSSVTVPTLIFACENDSIAPVNSSALPIYDSMSRNAKQFLEINGGSHSCANSGNSNQALIGKKGVAWMKRFMDNDTRYSTFACENPNSTRVSDFRTANCSLEHHHHHH"}, "B2": {"name": "unnamed (protein)", "chain": "SNPYQRGPNPTRSALTADGPFSVATYTVSRLSVSGFGGGVIYYPTGTSLTFGGIAMSPGYTADASSLAWLGRRLASHGFVVLVINTNSRFDYPDSRASQLSAALNYLRTSSPSAVRARLDANRLAVAGHSMGGGGTLRIAEQNPSLKAAVPLTPWHTDKTFNTSVPVLIVGAEADTVAPVSQHAIPFYQNLPSTTPKVYVELDNASHFAPNSNNAAISVYTISWMKLWVDNDTRYRQFLCNVNDPALSDFRTNNRHCQ"}, "B3": {"name": "unnamed (protein)", "chain": "MNFPRASRLMQAAVLGGLMAVSAAATAQTNPYARGPNPTAASLEASAGPFTVRSFTVSRPSGYGAGTVYYPTNAGGTVGAIAIVPGYTARQSSIKWWGPRLASHGFVVITIDTNSTLDQPSSRSSQQMAALRQVASLNGTSSSPIYGKVDTARMGVMGWSMGGGGSLISAANNPSLKAAAPQAPWDSSTNFSSVTVPTLIFACENDSIAPVNSSALPIYDSMSRNAKQFLEINGGSHSCANSGNSNQALIGKKGVAWMKRFMDNDTRYSTFACENPNSTRVSDFRTANCS"}}, "key": {"[1]": {"substrate": "pNP-C8", "assay": "Proxy for plastic degradation [Relative activity]"}, "[2]": {"substrate": "PET", "assay": "Proxy for plastic degradation [Released monomer concentration (HPLC/LC-MS) (MHET+TPA+BHET)]", "conditions": "pH 8"}, "[3]": {"substrate": "pNP-C8", "assay": "Proxy for plastic degradation [p-nitrophenol (pNP) release] (% relative activity)", "conditions": "part of the chain shown"}}}
{"protein": "B1", "values": [{"measurement": "Proxy for plastic degradation", "setting": "[1]; 5 °C", "result": 100, "unit": "%"}, {"measurement": "Proxy for plastic degradation", "setting": "[1]; 30 °C", "result": 80, "unit": "%"}, {"measurement": "Proxy for plastic degradation", "setting": "[1]; 35 °C", "result": 100, "unit": "%"}, {"measurement": "Proxy for plastic degradation", "setting": "[1]; pH 3", "result": 10, "unit": "%"}, {"measurement": "Proxy for plastic degradation", "setting": "[1]; pH 4", "result": 20, "unit": "%"}, {"measurement": "Proxy for plastic degradation", "setting": "[1]; pH 5", "result": 65, "unit": "%"}, {"measurement": "Proxy for plastic degradation", "setting": "[1]; pH 6", "result": 95, "unit": "%"}, {"measurement": "Proxy for plastic degradation", "setting": "[1]; pH 7", "result": 98, "unit": "%"}, {"measurement": "Proxy for plastic degradation", "setting": "[1]; pH 8", "result": 100, "unit": "%"}, {"measurement": "Proxy for plastic degradation", "setting": "[1]; pH 9", "result": 95, "unit": "%"}, {"measurement": "Proxy for plastic degradation", "setting": "[1]; pH 10", "result": 70, "unit": "%"}, {"measurement": "Proxy for plastic degradation", "setting": "[2]; 30 °C", "result": 1.8, "unit": "mM"}, {"measurement": "Proxy for plastic degradation", "setting": "[2]; 40 °C", "result": 2.2, "unit": "mM"}, {"measurement": "Proxy for plastic degradation", "setting": "[2]; 50 °C", "result": 0.8, "unit": "mM"}, {"measurement": "Proxy for plastic degradation", "setting": "[2]; 60 °C", "result": 0.4, "unit": "mM"}, {"measurement": "Proxy for plastic degradation", "setting": "[2]; 70 °C", "result": 0.2, "unit": "mM"}, {"measurement": "Proxy for plastic degradation", "setting": "[2]; 80 °C", "result": 0.1, "unit": "mM"}]}
{"protein": "B2", "values": [{"measurement": "Proxy for plastic degradation", "setting": "[1]; 5 °C, part of the chain shown", "result": 100, "unit": "%"}, {"measurement": "Proxy for plastic degradation", "setting": "[1]; 30 °C, part of the chain shown", "result": 35, "unit": "%"}, {"measurement": "Proxy for plastic degradation", "setting": "[1]; 35 °C, part of the chain shown", "result": 48, "unit": "%"}, {"measurement": "Proxy for plastic degradation", "setting": "[1]; pH 3, part of the chain shown", "result": 0, "unit": "%"}, {"measurement": "Proxy for plastic degradation", "setting": "[1]; pH 4, part of the chain shown", "result": 20, "unit": "%"}, {"measurement": "Proxy for plastic degradation", "setting": "[1]; pH 5, part of the chain shown", "result": 70, "unit": "%"}, {"measurement": "Proxy for plastic degradation", "setting": "[1]; pH 6, part of the chain shown", "result": 100, "unit": "%"}, {"measurement": "Proxy for plastic degradation", "setting": "[1]; pH 7, part of the chain shown", "result": 100, "unit": "%"}, {"measurement": "Proxy for plastic degradation", "setting": "[1]; pH 8, part of the chain shown", "result": 90, "unit": "%"}, {"measurement": "Proxy for plastic degradation", "setting": "[1]; pH 9, part of the chain shown", "result": 55, "unit": "%"}, {"measurement": "Proxy for plastic degradation", "setting": "[1]; pH 10, part of the chain shown", "result": 0, "unit": "%"}, {"measurement": "Proxy for plastic degradation", "setting": "[2]; 30 °C, part of the chain shown", "result": 0, "unit": "mM"}, {"measurement": "Proxy for plastic degradation", "setting": "[2]; 40 °C, part of the chain shown", "result": 0.4, "unit": "mM"}, {"measurement": "Proxy for plastic degradation", "setting": "[2]; 50 °C, part of the chain shown", "result": 1.5, "unit": "mM"}, {"measurement": "Proxy for plastic degradation", "setting": "[2]; 60 °C, part of the chain shown", "result": 3.8, "unit": "mM"}, {"measurement": "Proxy for plastic degradation", "setting": "[2]; 70 °C, part of the chain shown", "result": 5.8, "unit": "mM"}, {"measurement": "Proxy for plastic degradation", "setting": "[2]; 80 °C, part of the chain shown", "result": 4, "unit": "mM"}]}
{"protein": "B3", "values": [{"measurement": "Proxy for plastic degradation", "setting": "[3]; pH 3", "result": 10}, {"measurement": "Proxy for plastic degradation", "setting": "[3]; pH 4", "result": 17}, {"measurement": "Proxy for plastic degradation", "setting": "[3]; pH 5", "result": 62}, {"measurement": "Proxy for plastic degradation", "setting": "[3]; pH 6", "result": 94}, {"measurement": "Proxy for plastic degradation", "setting": "[3]; pH 7", "result": 98}, {"measurement": "Proxy for plastic degradation", "setting": "[3]; pH 8, 5 °C", "result": 100}, {"measurement": "Proxy for plastic degradation", "setting": "[3]; pH 8, 30 °C", "result": 80}, {"measurement": "Proxy for plastic degradation", "setting": "[3]; pH 8, 35 °C", "result": 100}, {"measurement": "Proxy for plastic degradation", "setting": "[3]; pH 8", "result": 100}, {"measurement": "Proxy for plastic degradation", "setting": "[3]; pH 9", "result": 96}, {"measurement": "Proxy for plastic degradation", "setting": "[3]; pH 10", "result": 69}]}
